Assay [1] addresses T1, FP receptor (Homo sapiens, UniProt P43088).
T1 construct: introduced transiently into permeabilized A549 cells; endogenous in cells; host or cells: A549 lung carcinoma cells (ATCC CCL185)
Nature of the assay: Phosphoinositide hydrolysis in A549 cells stably expressing the peptides, stimulated with PGF2α. It counts as cell-based. The following applies: peptide stably expressed intracellularly in A549 cells; 1 μM PGF2α, 30 min; n=3; FIG. 1A. The protocol: (§1) A549 lung carcinoma cells (ATCC Accession No.: CCL185, American Type Culture Collection, Rockville, Md. 20852) were cultured in Dulbecco's modified Eagles medium (DMEM) with 10% fetal bovine serum (FBS) and antibiotics, penicillin (10 U/ml) and streptomycin (10 μg/ml) in a humidified atmosphere containing 5% CO2 at 37° C. The cells were trypsinized and plated in 6-well tissue culture dishes at 2×10^5 cells/well, a day before commencing the experiments.
(§2) The expression plasmids carrying the third (PCP-1) and the fourth (PCP-2) intracellular domains were introduced into A549 cells using Transfectamine lipid (GIBCO Life Technologies, Burlington, ON). Three (3) micrograms of DNA and 16 μg of lipid were mixed in 200 μl of water and incubated at room temperature for 45 min. Then, the lipid-DNA complexes were diluted with 0.8 ml of Opti-MEM™ (GIBCO Life Technologies, Burlington, ON). The cells were washed twice with Hank's Balanced Salt Solution and incubated with lipid-DNA complexes for 6 hours. An equal volume of DMEM with 20% FBS was added and the cells were kept in the incubator overnight. On the next day, the medium was replaced with DMEM containing 10% FBS and antibiotics and incubated for another 24 hours. […]

The target of assay [2] is T2, EP1 (Homo sapiens, UniProt P34995).
T2 construct: a related prostaglandin receptor expressed in these cells; endogenous in cells; host or cells: A549 lung carcinoma cells (ATCC CCL185)
T2 sequence (P34995 1-402): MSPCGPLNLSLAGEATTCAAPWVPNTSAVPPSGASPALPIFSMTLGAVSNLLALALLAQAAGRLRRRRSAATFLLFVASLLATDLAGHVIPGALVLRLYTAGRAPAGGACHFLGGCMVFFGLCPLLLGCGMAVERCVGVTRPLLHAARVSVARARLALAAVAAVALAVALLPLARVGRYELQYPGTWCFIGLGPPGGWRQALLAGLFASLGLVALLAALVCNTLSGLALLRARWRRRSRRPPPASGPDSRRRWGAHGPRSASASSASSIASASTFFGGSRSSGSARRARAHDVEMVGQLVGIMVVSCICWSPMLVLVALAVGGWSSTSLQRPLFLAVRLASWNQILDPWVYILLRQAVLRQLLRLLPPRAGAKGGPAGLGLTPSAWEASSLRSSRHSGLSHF
Nature of the assay: Phosphoinositide hydrolysis in A549 cells stably expressing the peptides, stimulated with PGE2. The following applies: peptide stably expressed intracellularly in A549 cells; 1 μM PGE2, 30 min; FIG. 1B. Type of assay: cell-based. The protocol: as §1, §2

T1 sequence (P43088 whole entry): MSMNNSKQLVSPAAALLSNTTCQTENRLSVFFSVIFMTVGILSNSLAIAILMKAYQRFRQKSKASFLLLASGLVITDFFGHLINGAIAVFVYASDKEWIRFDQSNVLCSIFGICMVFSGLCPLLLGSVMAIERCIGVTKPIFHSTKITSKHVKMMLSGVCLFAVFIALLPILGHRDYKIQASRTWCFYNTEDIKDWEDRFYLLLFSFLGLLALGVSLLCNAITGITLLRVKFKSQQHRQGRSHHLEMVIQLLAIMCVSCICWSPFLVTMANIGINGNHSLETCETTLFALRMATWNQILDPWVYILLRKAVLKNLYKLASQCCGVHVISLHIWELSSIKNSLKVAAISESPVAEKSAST

With “RKAVLKNLYKLASQCCGVHVISLHIWELSSIKNSLKVAAISESPVAEKSAST (RKAVLKNLYKLASQCCGVHVISLHIWELSSIKNSLKVAAISESPVAEKSAST) [PCP-2, fourth intracellular domain of the human FP receptor, expressed intracellularly from a plasmid]”, the “ligand-stimulated phosphoinositide hydrolysis (fold stimulation over unstimulated controls)” value in assay [1] is recorded as “inhibited”. Besides, in assay [2], the “inositol phosphate generation by EP1 receptor on stimulation with PGE2” value was “did not affect”.

Turning to “RVKFKSQQHR QGRSHHLEM (RVKFKSQQHRQGRSHHLEM) [PCP-1, third intracellular domain of the human FP receptor, expressed intracellularly from a plasmid]”, the “ligand-stimulated phosphoinositide hydrolysis (fold stimulation over unstimulated controls)” value in assay [1] is reported as “inhibited”. In assay [2], the “inositol phosphate generation by EP1 receptor on stimulation with PGE2” value is reported as “did not affect”.

Source of the values: patent publication US6300312A, “Antagonists of G-protein-coupled receptor” (Hô ;pital Sainte-Justine, priority 2000, dated 2001).
